Measured values reported in the supplement of paper PMC10567573.
± gives the standard deviation.

Assay: protein stability index of a GFP-peptide fusion (GPS, HEK-293T) (PSI 1-6); higher = more stable
[1] = treatment: DMSO, c terminus: a fixed tail appended
[2] = treatment: MLN4924 1 uM, 8 h, c terminus: a fixed tail appended
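Further: 24-mer peptide tiles fused after GFP, lentivirally expressed, FACS-sorted into six equal bins by GFP/DsRed ratio, decoded by Illumina sequencing, PSI is the read-weighted mean bin number.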

Sequence | protein stability index [1] | protein stability index [2] | protein stability index (treatment: DMSO, c terminus: native) | protein stability index (treatment: MLN4924 1 uM, 8 h, c terminus: native)
MALPGARARGWAAAARAAQRRRRV [RSAD1] | 4.64 ± 0.15 | 4.61 ± 0.17 | – | –
MASCAEPSEPSAPLPAGVPPLEDF [FKBP8] | 4.97 ± 0.28 | 5.05 ± 0.14 | – | –
MAVALGCAIQASLNQGSVFQEYDT [ZNF449] | 3.91 ± 0.54 | 2.88 ± 1.2 | – | –
MAVDKDTTNVGRYPVGRFPSLHVV [FEM1A] | 2.67 ± 0.3 | 2.72 ± 0.34 | – | –
MDEKVFTKELDQWIEQLNECKQLS [PPP2CA] | 4.15 ± 0.17 | 4.15 ± 0.16 | – | –
MDIKNSPSSLNSPSSYNCSQSILP [ESR2] | 3.8 ± 0.19 | 3.93 ± 0.29 | – | –
MERRRLRGSIQSRYISMSVWTSPR [PRAME] | 2.64 ± 0.28 | 2.73 ± 0.38 | – | –
MESRKDITNQEELWKMKPRRNLEE [STEAP1] | 4.91 ± 0.37 | 4.92 ± 0.34 | – | –
MGKRDTADIISTVEFNHTGELLAT [PPP2R2C] | 3.62 ± 0.21 | 3.89 ± 0.31 | – | –
MGTRRKHLGCAVYQDMIYAVGGRD [KLHL20] | 2.33 ± 0.27 | 2.29 ± 0.56 | – | –
MHDMLLEELAPVGTAHIPPTMHLE [ZNF449] | 3.71 ± 0.32 | 3.64 ± 0.12 | – | –
MHPKETTRQLSLAVKDGLIVETLT [ZMYND11] | 3.27 ± 0.28 | 3.36 ± 0.24 | – | –
MKALLGSYAHSVEDTHVQIGQVHE [FCHO1] | 3.62 ± 0.091 | 3.6 ± 0.25 | – | –
MKNLLFSEMWDIFLVRLLMAMAVM [MFSD9] | 3.14 ± 0.48 | 3.22 ± 0.77 | – | –
MLQKPKSVKLRALRSPRKFGVAGR [DFFB] | 2.94 ± 0.27 | 3.26 ± 0.35 | – | –
MLRWLIGGGREPQGLAEKSPLQTI [WDR41] | 2.33 ± 0.21 | 2.33 ± 0.23 | – | –
MNRAFSRKKDKTWMHTPEALSKHF [GULP1] | 2.69 ± 0.21 | 2.85 ± 0.14 | – | –
MPYNFCLPSLSCRTSCSSRPCVPP [KRT33B] | 2.34 ± 0.41 | 2.18 ± 0.45 | – | –
MQDYVRTGTYQRAILQNHTDFKDK [CARM1] | 3.92 ± 0.32 | 4.18 ± 0.29 | – | –
MQIEFIKQGSMNFRFIPVLFPNAK [TRAF3IP2] | 2.96 ± 0.71 | 2.45 ± 0.58 | – | –
MQSLDDATKQLDFTRKTLAEKKQE [SASS6] | 5.12 ± 0.24 | 5.19 ± 0.27 | – | –
MRKSGAMKKGGIFSAEFLKVFIPS [BNIP3L] | 2.38 ± 0.3 | 2.26 ± 0.21 | – | –

Sequence | protein stability index [1] | protein stability index [2] | protein stability index (treatment: DMSO, c terminus: native) | protein stability index (treatment: MLN4924 1 uM, 8 h, c terminus: native)
MSIVIPLGVDTAETSYLEMAAGSE [KMT2E] | 2.76 ± 0.51 | 2.74 ± 0.39 | – | –
MSLLHLGALYGITLIPTCKFYTWL [SCD] | 3.01 ± 0.57 | 3.74 ± 0.94 | – | –
MSSENCFVAENSSLHPESGQENDA [CD69] | 5.71 ± 0.19 | 5.54 ± 0.096 | – | –
MSSPSSPFREQSFLCAAGDAGEES [TIAF1] | 5.34 ± 0.18 | 5.32 ± 0.17 | – | –
MSSRKVLAIQARKRRPKREKHPKK [SRPK2] | 4.41 ± 0.28 | 4.46 ± 0.52 | – | –
MTMTTMPESLNSPVSGKAVFMEFG [DLX1] | 2.42 ± 0.16 | 2.57 ± 0.21 | – | –
MVHKRSHTGERPFQCNQCGASFTQ [IKZF1] | 2.86 ± 0.25 | 2.97 ± 0.43 | – | –
NAVRQNGQLVRNDSLWHRSDSAPR [MFF] | 4.01 ± 0.25 | 4.07 ± 0.21 | – | –
NCVSSVYLYYDPDYSFLSLGVYSA [ATE1] | 3.23 ± 0.41 | 3.27 ± 0.11 | – | –
NDTYRTDLCLLYPPFMIALACLHV [CCNC] | 3.07 ± 0.38 | 2.97 ± 0.23 | – | –
NDVRQSANYTCVAMSTLGVIEAIA [PTPRD] | 2.3 ± 0.34 | 2.19 ± 0.3 | – | –
NEDGPSSENLEEETENIIAANHWV [TRIP13] | 5.08 ± 0.31 | 5.42 ± 0.23 | – | –
NEPSINFYKRRGASDLSSEEGWRL [SAT1] | 3.69 ± 0.4 | 3.84 ± 0.17 | – | –
NETRRKHETRLVEVDSGRQIEYEY [LMNB1] | 4.54 ± 0.14 | 4.57 ± 0.23 | – | –
NGINGELTSADRETAEEVSARIVQ [MAP2] | 5.23 ± 0.22 | 5.35 ± 0.18 | – | –
NGLTPKKKIQVNSKPSIQPKPLLL [ATF6] | 3.48 ± 0.17 | 3.32 ± 0.25 | – | –
NHLDPFGHIILNSMHKYQPRLHIV [TBX5] | 2.31 ± 0.23 | 2.08 ± 0.52 | – | –
NIDETCGRHHSQSTEVQAHPYSTT [TEKT4] | 4.62 ± 0.091 | 4.54 ± 0.07 | – | –
NIIAIAATNNLYIFQDKVNSDMH [PPP2R2C] | – | – | 2.36 ± 0.49 | 2.09 ± 0.2
NKKHGEAEKKKPKTQIVCKHFLEA [ZC3H15] | 4.09 ± 0.32 | 4.14 ± 0.31 | – | –
NLAAAAADIPQDQLVVMHPTPQVD [BTBD10] | 5.14 ± 0.21 | 5.13 ± 0.21 | – | –
NLDKMADNLLAAADKYALERLKVM [SPOPL] | 3.1 ± 0.44 | 3.04 ± 0.42 | – | –

Sequence | protein stability index [1] | protein stability index [2] | protein stability index (treatment: DMSO, c terminus: native) | protein stability index (treatment: MLN4924 1 uM, 8 h, c terminus: native)
NLGDALDSSNSMQTIQKTTTRRIV [KRT18] | 4.38 ± 0.19 | 4.51 ± 0.28 | – | –
NMSLTALREKLLEAEQSLRNLEDI [TEKT4] | 3.29 ± 0.47 | 3.43 ± 0.46 | – | –
NNEEQRSGLIYLTNHIAPHARNGL [IKZF1] | 3.34 ± 0.33 | 3.52 ± 0.2 | – | –
NNGIFQINSRRWCSNLTPNVPNVC [SPACA3] | 2.6 ± 0.28 | 2.63 ± 0.25 | – | –
NQAGYFMLPTVITDIKDESCCMTE [ALDH8A1] | 3.5 ± 0.13 | 3.71 ± 0.43 | – | –
NQVSSNSWGIAGETELALVKESGE [DLC1] | 5.17 ± 0.41 | 5.23 ± 0.2 | – | –
NRNQGLNRLMLAVRDMMANFHLND [TCF25] | 2.1 ± 0.16 | 2.24 ± 0.37 | – | –
NRRDVEAWFFSKTEELNKEVASNT [KRT15] | 4.05 ± 0.26 | 4.12 ± 0.23 | – | –
NRVVVSGLPPSGSWQDLKDHMREA [SRSF1] | 3.93 ± 0.094 | 4.03 ± 0.12 | – | –
NSGHTIFNDPFFIVETVCIVWFSF [KCNA4] | 3.49 ± 0.58 | 3.51 ± 0.31 | – | –
NSKPCISLNGPLSTSRHVMAPVMA [ADAMTS4] | 2.83 ± 0.39 | 3.12 ± 0.19 | – | –
NSRRNINYRSFEPILRLLPQGISP [ZER1] | 2.3 ± 0.2 | 2.54 ± 0.17 | – | –
NSSEELSSALHLSKGMSIFLDILR [NECAB1] | 2.38 ± 0.13 | 2.54 ± 0.21 | – | –
NTGKTYFFVANKYWRYDEYKRSMD [MMP1] | 1.98 ± 0.17 | 2.2 ± 0.19 | – | –
NTKAEMEMSLAEELNHGRQGENQE [FATE1] | 5.53 ± 0.16 | 5.64 ± 0.12 | – | –
NTNTLKVPECRLAEDLGNLWENTR [SPOPL] | 3.22 ± 0.26 | 3.41 ± 0.34 | – | –
NVPLSISRLTPGGKAAQAGVAVGD [PDLIM7] | 4.05 ± 0.23 | 4.18 ± 0.13 | – | –
NVTNLEGGPGRQTTSPNVLWPTPG [ESR2] | 3.17 ± 0.35 | 3.17 ± 0.37 | – | –
NWGNGKRPNLETYYERVLKRKTFN [GDAP1] | 2.57 ± 0.12 | 2.79 ± 0.52 | – | –
PAICALRHLTSRHQEAEMAQNAVR [CTNNB1] | 3.2 ± 0.5 | 3.67 ± 0.32 | – | –
PAPASSTPQEPWPGPTAPSPTSRP [PDLIM7] | 5.07 ± 0.093 | 5.13 ± 0.22 | – | –
